Laboratory results reported in patent US20230183352A1 (published 2023).
Like-named read-outs stand apart in the source and are kept apart here.

How the values were obtained:
[1] = molecular target: T1, Claudin 18.2 (CLDN18.2), expressed on CHOS-CLDN 18.2 / HEK293-CLDN 18.2 / HCC827-CLDN 18.2 cells (human, UniProt P56856-2 1-261); experiment: FACS, CHOS-CLDN18.2 cells, 1.250 µg/ml
T1 construct: whole, on cells; The species is not repeated for the CHOS-CLDN 18.2 cells; also called claudin-18A2
Experimental: (§1) The initial concentration of the antibody was 20 μg/ml, it was diluted at 1:4, and incubated at 4° C. for 60 min.

[2] = molecular target: T1, Claudin 18.2 (CLDN18.2), expressed on …; experiment: FACS, CHOS-CLDN18.2 cells, 0.313 µg/ml
Experimental: as §1

[3] = molecular target: T1, Claudin 18.2 (CLDN18.2), expressed on …; experiment: FACS, CHOS-CLDN18.2 cells, 1.250 µg/ml; remark: listed apart in the source
Experimental: as §1

[4] = molecular target: T1, Claudin 18.2 (CLDN18.2), expressed on …; experiment: FACS, CHOS-CLDN18.2 cells, 1.250 µg/ml; remark: listed apart in the source
Experimental: as §1

[5] = molecular target: T1, Claudin 18.2 (CLDN18.2), expressed on …; experiment: FACS, CHOS-CLDN18.2 cells, 0.005 µg/ml
Experimental: as §1

[6] = molecular target: T1, Claudin 18.2 (CLDN18.2), expressed on …; experiment: FACS, CHOS-CLDN18.2 cells, 0 µg/ml (background)
Experimental: as §1

[7] = molecular target: T1, Claudin 18.2 (CLDN18.2), expressed on …; experiment: FACS, CHOS-CLDN18.2 cells, 1.250 µg/ml; remark: listed apart in the source
Experimental: as §1

[8] = molecular target: T1, Claudin 18.2 (CLDN18.2), expressed on …; experiment: FACS, CHOS-CLDN18.2 cells
Experimental: as §1

[9] = molecular target: T1, Claudin 18.2 (CLDN18.2), expressed on …; experiment: FACS, CHOS-CLDN18.2 cells, 5 µg/ml
Experimental: as §1

[10] = molecular target: T1, Claudin 18.2 (CLDN18.2), expressed on …; experiment: FACS, CHOS-CLDN18.2 cells, 0.020 µg/ml
Experimental: as §1

[11] = molecular target: T1, Claudin 18.2 (CLDN18.2), expressed on …; experiment: cell-based or functional assay
[12] = molecular target: T1, Claudin 18.2 (CLDN18.2), expressed on …; experiment: FACS, CHOS-CLDN18.2 cells, 0 µg/ml (background); remark: listed apart in the source
Experimental: as §1

[13] = molecular target: T1, Claudin 18.2 (CLDN18.2), expressed on …; experiment: FACS, CHOS-CLDN18.2 cells, 20 µg/ml
Experimental: as §1

[14] = molecular target: T1, Claudin 18.2 (CLDN18.2), expressed on …; experiment: FACS, CHOS-CLDN18.2 cells; remark: listed apart in the source
Experimental: as §1

[15] = molecular target: T1, Claudin 18.2 (CLDN18.2), expressed on …; experiment: FACS, MFI on CHOS-CLDN18.2 over MFI on CHOS-CLDN18.1, 10 µg/ml
Experimental: The initial concentration of the antibody was 20 μg/mkit was diluted at 1:4, and incubated at 4° C. for 60 min.

[16] = molecular target: T1, Claudin 18.2 (CLDN18.2), expressed on …; experiment: FACS, CHOS-CLDN18.2 cells, 0.313 µg/ml; remark: listed apart in the source
Experimental: as §1

[17] = molecular target: T1, Claudin 18.2 (CLDN18.2), expressed on …; experiment: FACS, CHOS-CLDN18.2 cells, 5 µg/ml; remark: listed apart in the source
Experimental: as §1

B1: QP024025 (antibody, human IgG1, V domains shown)
VH: QVQLQQPGAELVRPGASVKLSCKASGYTFTSYWINWVKQRPGQGLEWIGNIYPSDSYTNYNQKFKDKATLTVDKSSSTAYMQLSSPTSEDSAVYYCTRSWRGNSFDYWGQGTTLTVSS
VL: DIVMTQSPSSLTVTAGEKVTMSCKSSQSLLNSGNQKNYLTWYQQKPGQPPKLLIYWASTRESGVPDRFTGSGSGTDFTLTISSVQAEDLAVYYCQNDYSYPFTFGSGTKLEIK
notes: also called IMAB362; 175D10(IMAB362)
In the case of B1, the FACS reading [1] is reported as 63700, the FACS reading [2] is reported as 51000 and the FACS reading [3] is reported as 63700. It also gave an FACS reading [4] of 63700, an FACS reading [5] of 2830 and an FACS reading [6] of 732. It also gave an FACS reading [7] of 63700, an EC50 [8] of 0.27 µg/mL and a max [8] of 88600. For the same binder, the FACS reading [9] was 105000, the FACS reading [10] was 6950 and the “EC50 of killing, ADCC (PBMC, HEK293-CLDN18.2 cells)” value [11] was 0.0156 µg/mL. For the same binder, the “Killing percentage, ADCC (PBMC, HEK293-CLDN18.2 cells), 0 µg/ml” value [11] was -1.33%, the “Killing percentage, ADCC (PBMC, HEK293-CLDN18.2 cells), 0.0001024 µg/ml” value [11] was -2.74% and the “Killing percentage, ADCC (PBMC, HEK293-CLDN18.2 cells), 0.000512 µg/ml” value [11] was 1.7%. The “Killing percentage, ADCC (PBMC, HEK293-CLDN18.2 cells), 0.00256 µg/ml” value [11] was 1.49%, the “Killing percentage, ADCC (PBMC, HEK293-CLDN18.2 cells), 0.0128 µg/ml” value [11] was 11% and the “Killing percentage, ADCC (PBMC, HEK293-CLDN18.2 cells), 0.064 µg/ml” value [11] was 22%. The “Killing percentage, ADCC (PBMC, HEK293-CLDN18.2 cells), 0.32 µg/ml” value [11] was 28.2%, the “Killing percentage, ADCC (PBMC, HEK293-CLDN18.2 cells), 1.6 µg/ml” value [11] was 30% and the “Killing percentage, ADCC (PBMC, HEK293-CLDN18.2 cells), 8 µg/ml” value [11] was 26.2%. The “Killing percentage, ADCC (PBMC, HEK293-CLDN18.2 cells), 40 µg/ml” value [11] was 21.6%, the FACS reading [12] was 732 and the FACS reading [13] was 72300. For the same binder, the EC50 [14] was 0.27 µg/mL, the max [14] was 88600 and the “CLDN18.2/CLDN18.1 (MFI ratio)” value [15] was 104. For the same binder, the FACS reading [16] was 51000 and the FACS reading [17] was 105000.
